# Biological target: purified C3b (Complement Technology, Inc. #A114), P01024
# Sequence (P01024 whole entry, looked up): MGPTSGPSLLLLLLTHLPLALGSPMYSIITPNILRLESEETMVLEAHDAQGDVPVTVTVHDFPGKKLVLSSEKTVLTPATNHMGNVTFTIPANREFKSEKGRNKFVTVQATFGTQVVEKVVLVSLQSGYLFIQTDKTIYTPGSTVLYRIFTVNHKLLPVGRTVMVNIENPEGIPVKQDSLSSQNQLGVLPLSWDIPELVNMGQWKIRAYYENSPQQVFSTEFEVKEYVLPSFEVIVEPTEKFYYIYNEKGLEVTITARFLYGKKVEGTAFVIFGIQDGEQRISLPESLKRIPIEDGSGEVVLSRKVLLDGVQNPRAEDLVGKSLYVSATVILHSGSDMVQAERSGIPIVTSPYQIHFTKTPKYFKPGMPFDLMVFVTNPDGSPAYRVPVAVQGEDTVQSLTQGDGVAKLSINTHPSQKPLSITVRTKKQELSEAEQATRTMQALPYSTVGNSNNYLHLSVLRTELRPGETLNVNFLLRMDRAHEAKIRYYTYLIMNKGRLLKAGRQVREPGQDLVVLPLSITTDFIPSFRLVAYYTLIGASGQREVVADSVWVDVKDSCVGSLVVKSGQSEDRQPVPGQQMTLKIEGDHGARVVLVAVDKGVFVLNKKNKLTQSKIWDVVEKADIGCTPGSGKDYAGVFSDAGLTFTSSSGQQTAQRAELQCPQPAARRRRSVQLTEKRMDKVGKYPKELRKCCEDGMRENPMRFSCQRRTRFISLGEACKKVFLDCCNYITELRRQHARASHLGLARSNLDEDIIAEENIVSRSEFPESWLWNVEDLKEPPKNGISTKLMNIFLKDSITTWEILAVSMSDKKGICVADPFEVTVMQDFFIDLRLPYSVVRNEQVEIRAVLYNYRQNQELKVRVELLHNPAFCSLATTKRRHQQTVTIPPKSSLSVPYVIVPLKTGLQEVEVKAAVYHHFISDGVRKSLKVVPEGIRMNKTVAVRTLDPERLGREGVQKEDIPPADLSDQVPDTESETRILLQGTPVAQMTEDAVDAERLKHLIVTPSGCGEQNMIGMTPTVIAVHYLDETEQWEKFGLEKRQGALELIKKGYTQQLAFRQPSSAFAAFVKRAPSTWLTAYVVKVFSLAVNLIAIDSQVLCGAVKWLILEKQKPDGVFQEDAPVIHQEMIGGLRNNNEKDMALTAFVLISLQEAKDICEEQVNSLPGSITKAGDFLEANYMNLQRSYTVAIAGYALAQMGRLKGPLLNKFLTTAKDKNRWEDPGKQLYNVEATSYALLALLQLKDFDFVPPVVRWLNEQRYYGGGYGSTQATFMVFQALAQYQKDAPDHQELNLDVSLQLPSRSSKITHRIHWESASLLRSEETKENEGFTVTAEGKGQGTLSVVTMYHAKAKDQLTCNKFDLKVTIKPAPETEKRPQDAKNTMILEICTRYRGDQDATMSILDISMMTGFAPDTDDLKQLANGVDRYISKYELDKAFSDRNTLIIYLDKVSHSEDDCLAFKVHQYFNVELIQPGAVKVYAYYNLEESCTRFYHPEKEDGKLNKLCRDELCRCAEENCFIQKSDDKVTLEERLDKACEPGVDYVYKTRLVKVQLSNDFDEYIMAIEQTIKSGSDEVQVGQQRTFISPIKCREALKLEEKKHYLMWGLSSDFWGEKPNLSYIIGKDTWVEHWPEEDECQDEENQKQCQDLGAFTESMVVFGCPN
protein,measurement,value
"human Complement Factor I (hCFI) expressed from the AAV-CFI-1.0 vector, secreted into cell media of transduced rabbit retinal explants (protein) KVTYTSQEDLVEKKCLAKKYTHLSCDKVFCQPWQRCIEGTCVCKLPYQCPKNGTAVCATNRRSFPTYCQQKSLECLHPGTKFLNNGTCTAEGKFSVSLKHGNTDSEGIVEVKLVDQDKTMFICKSSWSMREANVACLDLGFQQGADTQRRFKLSDLSINSTECLHVHCRGLETSLAECTFTKRRTMGYQDFADVVCYTQKADSPMDDFFQCVNGKYISQMKACDGINDCGDQSDELCCKACQGKGFHCKSGVCIPSQYQCNGEVDCITGEDEVGCAGFASVTQEETEILTADMDAERRRIKSLLPKLSCGVKNRMHIRRKRIVGGKRAQLGDLPWQVAIKDASGITCGGIYIGGCWILTAAHCLRASKTHRYQIWTTVVDWIHPDLKRIVIEYVDRIIFHENYNAGTYQNDIALIEMKKDGNKKDCELPRSIPACVPWSPYLFQPNDTCIVSGWGREKDNERVFSLQWGEVKLISNCSKFYGNRFYEKEMECAGTYDGSIDACKGDSGGPLVCMDANNVTYVWGVVSWGENCGKPEFPGVYTKVANYFDWISYHVGRPFISQYNV","C3b cleavage assay (Western blot stained with anti-C3 antibody; appearance of iC3b 68 kDa and 43 kDa bands), in the presence of purified CFH",The iC3b 43 kDa polypeptide is present in all lanes containing cell media from rabbit explants transduced with AAV-CFI-1.0 package into either AAV2.7m8 or AAV2.5T-LSV1 capsid serotypes
